Results published in US8652790B2, “Conformational entropy in molecular recognition” (The Trustees of the University of Pennsylvania, priority 2007, dated 2014).

Experiments:
calmodulin [1] = biological target: T1, calmodulin (Homo sapiens, UniProt P0DP23); test: NMR relaxation: backbone dynamics (order parameters) of calmodulin in complex with target domains; conditions: average ± standard deviation, 35° C.; for <O^2CαCO>: CO—Cα bond vectors of calmodulin in complex; for <O^2NH>: N—H bond vectors of calmodulin in complex
Text: The sub-nanosecond (sub-ns) dynamics of the polypeptide backbone of calmodulin in the six complexes were probed using NMR relaxation techniques. The degree of spatial restriction of each motional probe was assigned a number between 0, corresponding to complete isotropic disorder, and 1, corresponding to a fixed orientation in the molecular frame. This parameter is the squared generalized order parameter (O^2) as it applies to the amide N—H bond (O^2NH), the Cα—C′ bond (O^2cαcO) and the methyl symmetry axis (O^2axis). O^2NH parameters at amide nitrogen sites were obtained from measurements of ^15N dipolar relaxation. Farrow, N. A. et al. Backbone dynamics of a free and a phosphopeptide-complexed Src homology-2 domain studied by ^15N NMR relaxation. Biochemistry 33, 5984-6003 (1994). O^2cαcO parameters were obtained from measurement of transverse cross-correlated relaxation between ^13CO chemical shift anisotropy and the ^13CO—^13Cα dipolar interactions. Wang, T., Cai, S. & Zuiderweg, E. R. Temperature dependence of anisotropic protein backbone dynamics. J. Am. Chem. Soc. […] The motion of methyl groups (O^2axis) of calmodulin side chains were characterized using ^2H spin relaxation methods. Muhandiram, D. R. et al. Measurement of H-2 T-1 and T-1p relaxation-times in uniformly C-13-Labeled and fractionally H-2-labeled proteins in solution. J. Am. Chem. Soc. 117, 11536-11544 (1995).
O^2axis parameters were determined from T1 and T1p deuterium relaxation (Muhandiram, D. R. et al. Measurement of H-2 T-1 and T-1p relaxation-times in uniformly C-13-Labeled and fractionally H-2-labeled proteins in solution. J. Am. Chem. Soc. 117, 11536-11544 (1995)) measured at two magnetic fields. Rotational correlation times and O^2NH were determined from ^15N relaxation (Farrow, N. A. et al. Backbone dynamics of a free and a phosphopeptide-complexed Src homology-2 domain studied by ^15N NMR relaxation. Biochemistry 33, 5984-6003 (1994)) obtained at two magnetic fields. O^2CαCO parameters were determined by transverse cross-correlated relaxation. Wang, T., Cai, S. & Zuiderweg, E. R. Temperature dependence of anisotropic protein backbone dynamics. J. Am. Chem. Soc. […] All measurements were made at 35° C. Model-free parameters (Lipari, G. & Szabo, A. Model-free approach to the interpretation of nuclear magnetic-resonance relaxation in macromolecules. 1. Theory and range of validity. J. Am. Chem. Soc. 104, 4546-4559 (1982)) were determined using a grid search approach (Dellwo, M J. & Wand, A. J. Model-independent and model-dependent analysis of the global and internal dynamics of cyclosporine-A. J. Am. Chem. Soc. 111, 4571-4578 (1989)) using a quadrupolar coupling constant of 167 kHz, an effective N—H bond length of 1.04 Å and ^15N tensor breadth of 170 p.p.m. […] The model-free parameters have been deposited in the Biological Magnetic Resonance Data Bank (“BioMagResBank,” Eldon L. Ulrich; Hideo Akutsu; Jurgen F. Doreleijers; Yoko Harano; Yannis E. Ioannidis; Jundong Lin; Miron Livny; Steve Mading; Dimitri Maziuk; Zachary Miller; Eiichi Nakatani; Christopher F. Schulte; David E. Tolmie; R. Kent Wenger; Hongyang Yao; John L. Markley; Nucleic Acids Research 36, D402-D408 (2007) doi: 10.1093/nar/gkm957).

calmodulin [2] = biological target: T1, calmodulin; test: Populations of J, α, ω motional classes of calmodulin methyl O^2axis distributions in the complexes
Protocol: FIG. 3a, provides a histogram of the sum of the O^2axis parameter distributions of calmodulin in the six individual complexes obtained at 35° C. The solid line represents the best-fitted solution to a 3-gaussian distribution with all nine parameters fitted. FIG. 3b provides histograms of the O^2axis parameter distributions of calmodulin in the individual complexes. […]
The summed distribution of O^2axis axis parameters of all six complexes was fitted to a random distribution and to one, two- and three-gaussian distribution models. […] (3) where Ai, Ci and Wi define the population, centre and breadth, respectively, of the J, α and ω classes of motion.
The nine parameters were fitted using the nonlinear regression routine of SigmaPlot 2000 (SPSS). […] These centres were fixed in subsequent fitting of the O^2axis distributions of the individual complexes, from which the relative populations of each motional class were obtained. Uncertainties in the fitted populations were estimated by varying the O^2axis parameters by two standard deviations. […] The total change in conformational entropy of calmodulin on binding a target domain was calculated as the sum of three terms: ΔSconf=ΔSharm+ΔSrotamer(fast)+ΔSrotamer(slow). Changes in conformational entropy ΔSrotamer(fast) expressed as changes in motion within a rotameric well on the fast timescale (sub-ns) were obtained from the experimentally determined O^2axis parameters using a simple harmonic oscillator model. Li Z et al. (1996). To calculate changes in entropy derived from motion of the same oscillator, site-to-site comparison to free calcium-saturated calmodulin was used to provide a reference state. The change in the entropy reflected by the change in the motion of each methyl symmetry axis was estimated using ΔSharm=−18×ΔO^2axis J mol^−1 K^−1. See Li Z et al. (1996) for further details of the model. To normalize the unequal number of resolved sites among the complexes, the average methyl order parameter within a complex was assigned to each unresolved site of that complex. A classical entropy term (ΔSrotamer(fast)) was added to represent minor conformers that are sampled owing to fast rotameric interconversion that also contributes to the generalized order parameter. Lee, A. L. et al. Temperature dependence of the internal dynamics of a calmodulin peptide complex. Biochemistry 41, 13814-13825 (2002).

[3] = area under fitted Gaussian, fixed centres
[4] = percentage of counts in class (number of observations), O^2axis 0.5 to 0.7
[5] = percentage of counts in class (number of observations), O^2axis above 0.7
[6] = percentage of counts in class (number of observations), O^2axis up to 0.5

Row | Substance | <O^2CαCO> (calmodulin [1]) | <O^2NH> (calmodulin [1]) | % J (calmodulin [2]; [3]) | % α (calmodulin [2]; [3]) | % ω (calmodulin [2]; [3]) | % α (calmodulin [2]; [4]) | % ω (calmodulin [2]; [5]) | % J (calmodulin [2]; [6])
1 | (COOH-FPNGFSRKRLMSKVLIVTTWSPLL [CaMKKα(p)] | 0.79 ± 0.21 | 0.93 ± 0.08 | 38.5% | 21.3% | 40.3% | 30% | 35% | 35%
2 | AKSKWKQAFNATAVVRHMRKLQ (listed as Homo sapiens) [CaMKI(p)] | 0.88 ± 0.14 | 0.94 ± 0.08 | 38.2% | 24.8% | 37.0% | 30% | 32% | 38%
3 | KRRAIGFKKLAEAVKFSAKLMGQ [nNOS(p)] | 0.85 ± 0.16 | 0.92 ± 0.08 | 51.6% | 14.7% | 33.7% | 25% | 30% | 45%
4 | QTEKMWQRLKGILRSLVKQ [PDE(p)] | – | 0.92 ± 0.06 | 48.3% | 18.9% | 32.8% | 33% | 20% | 46%
5 | RKKTFKEVANAVKISASLMG [eNOS(p)] | – | – | 45.6% | 18.4% | 36.0% | 30% | 33% | 38%
